One test addresses H1N1-PR8-NS1(RBD) (Influenza A virus A/Puerto …, UniProt P03496). The experiment in a line: ELISA. The following applies: both partners purified. A general note: ELISA stands for enzyme-linked immunosorbent assay.
The target of the next test is H5N1-NS1-24mer (Influenza A virus …). The experiment in a line: ELISA. The conditions noted are these: both partners purified.
Chain of H5N1-NS1-24mer (Influenza A virus …) (O57276 30-53): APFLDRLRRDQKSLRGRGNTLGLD

Chain of H1N1-PR8-NS1(RBD) (P03496 1-70): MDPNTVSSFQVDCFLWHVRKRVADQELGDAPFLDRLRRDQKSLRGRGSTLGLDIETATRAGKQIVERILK

B1: monoclonal antibody 2H6 (antibody, V domains shown)
VH: DVKLVESGGGLVNLGGSLKLSCAASGFTFSRYYMSWVRQTPEKRLELVAAINHNSGRTYYSDTVKGRFTISRDNAKNTLYLQMSSLKSEDTALYYCTRHPLIYHGNYLDYWGQGTTLTVSS
VL: DIVLTQSPASLAVSLGQRATISCKASQSVDYDGDSYVTWYQQKPGQPPKLLIYVASNLESGIPARFSGSGSGTDFTLNIHPVEEEDAATYYCQQSNEDPWTFGGGTKLEIK
In the case of B1, the binding result in the test with H1N1-PR8-NS1(RBD) and with H5N1-NS1-24mer was “binds” throughout.

For the origin of these results see paper PMC5025888 (Scientific Reports, 2016).
